Test results published in paper PMC9966149, “The Dynamic Interactions of a Multitargeting Domain in Ameloblastin Protein with Amelogenin and Membrane” (International Journal of Molecular Sciences, 2023).
Values belong to the binder of their own block, whether it stands above or below them.

Columns and labels:
[1] = molecular target: spin-labeled xAB2N and AB2 (all residues); assay: EPR (continuous-wave, site-directed spin labelling); 15 uM spin-labeled peptide in 50 mM Tris, pH 7.6, 50 mM NaCl; rP172-W0 added to 15 uM, then to 75 uM; all in solution
[2] = molecular target: T1, tryptophan-free recombinant porcine amelogenin (rP172-W25Y/W45Y/W161Y) (porcine, UniProt P45561 17-189, W25Y | W45Y | W161Y); assay: other fluorescence titration; intrinsic tryptophan fluorescence (excitation 295 nm, peak wavelength); 8 uM tryptophan-containing peptide before and after 40 uM rP172-W0, no LUVs; 10 mM Tris-HCl, 50 mM NaCl, final pH 7.4; conditions: both partners purified
T1 construct: all three tryptophans changed to tyrosine; also called rP172-W0; recombinant Amel
T1 sequence (looked up): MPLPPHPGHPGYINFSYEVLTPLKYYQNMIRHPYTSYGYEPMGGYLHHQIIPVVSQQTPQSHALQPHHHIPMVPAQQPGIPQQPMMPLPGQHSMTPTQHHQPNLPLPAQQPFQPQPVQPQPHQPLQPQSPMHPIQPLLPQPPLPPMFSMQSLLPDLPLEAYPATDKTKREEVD

difference between inverse central linewidths (1/LW) of EPR spectra with and without Amel [1]: 0.16 to 0.35 G.^-1
B1: tryptophan-free recombinant porcine amelogenin (rP172-W25Y/W45Y/W161Y) (natural protein)
chain: T1 sequence (looked up)

binding result [2]: binds
B2: AB2N, the first 20 amino acids of the AB2 sequence (peptide, UniProt O55189 67-86, looked up)
peptide: YSRLGFGKALNSLWLHGLLP
notes: Mouse ameloblastin (Ambn), the first 20 residues of AB2; residues 3-20 of AB2 are stated to be residues 69-86 of mouse Ambn, so the peptide is 67-86; also called AB2 N-terminus; source: synthetic peptide (Biomer Technologies)

binding result [2]: binds
B3: xAB2N, extended AB2 N-terminus (peptide, UniProt O55189 51-86, looked up)
peptide: TMRQLGSLQGLNALSQYSRLGFGKALNSLWLHGLLP
notes: source: synthetic peptide (Biomer Technologies)
